Substitutions are numbered along the chain they refer to.
B1: Elongin C alanine scanning mutant C(Ala19-21) (other)
chain: MDGEEKTYGGCEGPDAMYAAAISSDGHEFIVKREHALTSGTIKAMLSGPGQFAENETNEVNFREIPSHVLSKVCMYFTYKVRYTNSSTEIPEFPIAPEIALELLMAANFLDC
B2: Elongin C alanine scanning mutant C(Ala22-24) (other)
chain: B1 chain with A19V, A20K, A21L, I22A, S23A, S24A
B3: Elongin C alanine scanning mutant C(Ala28-30) (other)
chain: B1 chain with A19V, A20K, A21L, E28A, F29A, I30A
B4: Elongin C alanine scanning mutant C(Ala25-27) (other)
chain: B1 chain with A19V, A20K, A21L, D25A, G26A, H27A
B5: wild type C. elegans Elongin A (other)
chain: MPETDEEKVRRYTECLMNGIDPKRALKRLYDLNVSPEVFKSADTVQCVKRYESSPELAKYAKRVRDKLLGGRKREKGGGEDDADIEHTALKKAKKEEVNLDEEFAEAMKSGVSAQASSAPRATVDYSKYKVVKRVEVKVEPKPEPVDVHEQQASSSSMSYQREHQKDYAPVVPTCKPSGQPKKAIPQSKSLHADENMFKPRKERQKVFAGRRKRVGEGVSTLVSLCQTVLMSHIDMIDHVGIVPFDLLKPVLDHASTDQLRHILDVNPMLVEDADEMFHEMVSREFPKYANREKSGWTWREMYDRLVEKKQKKENDKLEMLTSRIGKSNSAQSQGRQTMVIDMAHTRVRSKSFFNTVKDSQVKMSATPSALQLSQARKNVKIEGKAQLRTITPRGGGVPSTSRSRSNNNNNMNNGLVVKKTAPLMAKCKKMLKR
B6: Elongin C internal deletion mutant C(Δ21-30) (other)
chain: MDGEEKTYGGCEGPDAMYVKVKREHALTSGTIKAMLSGPGQFAENETNEVNFREIPSHVLSKVCMYFTYKVRYTNSSTEIPEFPIAPEIALELLMAANFLDC
B7: C. elegans Elongin A mutant C.e.EloA(202-434) (other)
chain: KERQKVFAGRRKRVGEGVSTLVSLCQTVLMSHIDMIDHVGIVPFDLLKPVLDHASTDQLRHILDVNPMLVEDADEMFHEMVSREFPKYANREKSGWTWREMYDRLVEKKQKKENDKLEMLTSRIGKSNSAQSQGRQTMVIDMAHTRVRSKSFFNTVKDSQVKMSATPSALQLSQARKNVKIEGKAQLRTITPRGGGVPSTSRSRSNNNNNMNNGLVVKKTAPLMAKCKKMLKR
B8: Elongin C internal deletion mutant C(Δ51-60) (other)
chain: MDGEEKTYGGCEGPDAMYVKLISSDGHEFIVKREHALTSGTIKAMLSGPGNFREIPSHVLSKVCMYFTYKVRYTNSSTEIPEFPIAPEIALELLMAANFLDC
B9: Elongin C internal deletion mutant C(Δ61-70) (other)
chain: B8 chain with N51Q, R53A, I55N, P56E, S57T, H58N, V59E, L60V
B10: Elongin C deletion mutant C(23-112) (other)
chain: SSDGHEFIVKREHALTSGTIKAMLSGPGQFAENETNEVNFREIPSHVLSKVCMYFTYKVRYTNSSTEIPEFPIAPEIALELLMAANFLDC
B11: Elongin C internal deletion mutant C(Δ71-80) (other)
chain: MDGEEKTYGGCEGPDAMYVKLISSDGHEFIVKREHALTSGTIKAMLSGPGQFAENETNEVNFREIPSHVLVRYTNSSTEIPEFPIAPEIALELLMAANFLDC
B12: Elongin C internal deletion mutant C(Δ81-90) (other)
chain: B11 chain with V71S, R72K, Y73V, T74C, N75M, S76Y, S77F, E79Y, I80K
B13: Elongin C internal deletion mutant C(Δ91-100) (other)
chain: MDGEEKTYGGCEGPDAMYVKLISSDGHEFIVKREHALTSGTIKAMLSGPGQFAENETNEVNFREIPSHVLSKVCMYFTYKVRYTNSSTEILELLMAANFLDC

Legend:
[1] = molecular target: wild type Elongin B (rat, UniProt P62870); assay: refolded with wild type Elongin B; TSK DEAE-NPR HPLC, SDS-PAGE, silver staining
Protocol: Figure 10A: FIG. 10A. […] Aliquots of the indicated column fractions were analyzed by SDS-PAGE, and proteins were visualized by silver staining. Figure 10B: FIG. 10B. N-terminal, C-terminal, and internal Elongin C deletion mutants were assayed for their abilities to form Elongin BC complexes as described.
~6 µg of Elongin B was mixed with ~6 µg of either wild type or mutant Elongin C and diluted 5-fold with 40 mM Hepes-NaOH (pH 7.9), 100 mM KCl, 2 mM DTT, 50 µM ZnSO_4, 0.1 mM EDTA, and 10% (v/v) glycerol. After incubation for 90 min on ice, the mixtures were dialyzed at 4° C. overnight against 40 mM Tris-HCl (pH 7.9), 0.1 mM EDTA, 10% (v/v) glycerol, and 40 mM KCl. Following dialysis, the mixtures were centrifuged at 60,000×g for 15 min at 4° C. The resulting supernatants were applied to TSK DEAE-NPR columns (35 mm×4.6 mm, Toso-Haas) pre-equilibrated in 40 mM Tris-HCl (pH 7.9), 0.1 mM EDTA, 1 mM DTT, 10% (v/v) glycerol, and 40 mM KCl and fractionated using a SMART microchromatography system (Pharmacia) at 8° C. The columns were eluted at 0.3 ml/min with a 3 ml linear gradient from 0.04 to 0.5M KCl in 40 mM Tris-HCl (pH 7.9), 0.1 mM EDTA, 1 mM DTT, and 10% (v/v) glycerol. Aliquots of each column fraction were analyzed by 10% Tris-Tricine SDS-polyacrylamide gel electrophoresis, and the proteins were visualized by silver staining.

[2] = molecular target: T1, Elongin BC complex (wild type rat Elongin B and C) (rat, UniProt P62870); assay: refolded with rat Elongin B and C; TSK SP-NPR HPLC, SDS-PAGE, silver staining
T1 chain 1: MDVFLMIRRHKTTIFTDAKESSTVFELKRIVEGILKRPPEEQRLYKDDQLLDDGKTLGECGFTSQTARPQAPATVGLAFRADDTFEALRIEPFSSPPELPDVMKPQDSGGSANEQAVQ
T1 chain 2: B1 chain with A19V, A20K, A21L
Protocol: Figure 8A: FIG. 8A. Analysis of wild type and mutant C. elegans Elongin A wherein wild type or mutant C. elegans Elongin A was refolded with rat Elongin B and C and subjected to TSK SP-NPR HPLC as described. Aliquots of the peak column fractions were analyzed by SDS-PAGE, and proteins were visualized by silver staining. WT C.e. […] Figure 8B: FIG. 8B. ~2 pmol of human or C. elegans Elongin A proteins were refolded as described (Bradsher, et al., *J Biol Chem* 268: 25587–25593 (1993)) in the presence or absence of ~2 pmol of rat Elongin B and C. Aliquots of refolded protein were assayed for transcriptional activity in oligo dc-tailed template assays performed as described. Reaction mixtures contained no Elongin (lane 1); 3 and 9 μl of renatured human Elongin A without (lanes 2 and 3) or with (lanes 4 and 5) Elongin B and C; 3 and 9 μl of renatured wild type C. elegans Elongin A without (lanes 6 and 7) or with (lanes 8 and 9) Elongin B and C; 3 and 9 μl of renatured C.e. EloA(94–434) (SEQ ID NO:44) without (lanes 10 and 11) or with (lanes 12 and 13) Elongin B and C; 3 and 9 μl of renatured C.e. EloA (202–434) (SEQ ID NO:45) with (lanes 14 and 15) or without (lanes 16, and 17) Elongin B and C.

[3] = molecular target: T2, wild type Elongin A (rat); assay: refolded with wild type Elongin A and B; TSK SP-NPR HPLC, SDS-PAGE, silver staining
T2 chain: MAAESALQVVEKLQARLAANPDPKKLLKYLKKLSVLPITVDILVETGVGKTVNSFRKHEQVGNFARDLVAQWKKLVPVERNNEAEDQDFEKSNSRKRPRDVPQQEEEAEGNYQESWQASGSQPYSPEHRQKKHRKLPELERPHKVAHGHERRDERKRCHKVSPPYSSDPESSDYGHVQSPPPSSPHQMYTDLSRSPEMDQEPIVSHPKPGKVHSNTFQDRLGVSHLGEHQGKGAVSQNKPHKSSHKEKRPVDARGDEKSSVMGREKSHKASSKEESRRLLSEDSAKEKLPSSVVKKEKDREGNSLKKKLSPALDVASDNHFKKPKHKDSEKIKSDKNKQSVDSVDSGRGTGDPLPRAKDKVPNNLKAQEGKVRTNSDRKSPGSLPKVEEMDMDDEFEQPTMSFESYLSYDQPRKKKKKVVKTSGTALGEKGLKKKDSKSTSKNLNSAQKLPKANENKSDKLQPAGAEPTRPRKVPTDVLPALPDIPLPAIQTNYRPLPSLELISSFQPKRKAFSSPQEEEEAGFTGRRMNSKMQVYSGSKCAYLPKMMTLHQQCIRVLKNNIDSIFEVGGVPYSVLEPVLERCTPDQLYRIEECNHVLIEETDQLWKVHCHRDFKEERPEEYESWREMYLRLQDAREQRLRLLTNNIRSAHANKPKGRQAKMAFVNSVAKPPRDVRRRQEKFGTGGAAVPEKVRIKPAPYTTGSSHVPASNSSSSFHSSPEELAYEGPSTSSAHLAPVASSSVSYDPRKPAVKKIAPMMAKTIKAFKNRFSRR

Binder | binding result [1] | binding result [2] | binding result [3]
B1 | binds |  | 
B2 | binds |  | 
B3 | no binding |  | 
B4 | no binding |  | 
B5 |  | binds | 
B6 | no binding |  | no binding
B7 |  | binds | 
B8 | binds |  | 
B9 | binds |  | 
B10 | no binding |  | 
B11 | binds |  | 
B12 | binds |  | 
B13 | binds |  | 

— US6084068, “Elongin A and C functional domains” (Oklahoma Medical Research Foundation, dated 2000)
